# Laboratory results reported in patent publication US6010851A, “Method for producing nucleoside-5'-phosphate ester” (Ajinomoto Co., Inc., priority 1995, dated 2000).
# B1: acid phosphatase derived from Escherichia blattae: enzyme purified from cell-free extract of Escherichia blattae JCM 1650; mature protein SEQ ID NO: 11 (protein)
# chain: LALVATGNDTTTKPDLYYLKNSEAINSLALLPPPPAVGSIAFLNDQAMYEQGRLLRNTERGKLAAEDANLSSGGVANAFSGAFGSPITEKDAPALHKLLTNMIEDAGDLATRSAKDHYMRIRPFAFYGVSTCNTTEQDKLSKNGSYPSGHTSIGWATALVLAEINPQRQNEILKRGYELGQSRVICGYHWQSDVDAARVVGSAVVATLHTNPAFQQQLQKAKAEFAQHQKK
# Assays:
# [1] = Phosphomonoesterase activity (inosine produced by hydrolysis of 5'-inosinic acid); type: biochemical; details: purified Escherichia blattae enzyme
# Protocol: The phosphomonoesterase activity was measured under the following condition using 5'-inosinic acid as a substrate. The reaction was performed at 30° C. for 10 minutes in a reaction solution (1 ml) containing 10 μmol/ml of 5'-inosinic acid, 100 μmol/ml of MES/NaOH buffer (pH 6.0), and an enzyme. The reaction was stopped by adding 200 μl of 2 N hydrochloric acid. After that, precipitates were removed by centrifugation. Then, inosine produced by the hydrolytic reaction was quantitatively measured. An amount of enzyme to produce 1 μmol of inosine per 1 minute under this standard reaction condition was defined as 1 unit.
# Inosine and 5'-inosinic acid were analyzed under the following condition by means of high-performance liquid chromatography (HPLC).
# [2] = Properties of the purified acid phosphatase derived from Escherichia blattae; design: species or system Escherichia blattae JCM 1650
# Protocol: A nutrient medium (pH 7.0, 50 ml) containing 1 g/dl of peptone, 0.5 g/dl of yeast extract, and 1 g/dl of sodium chloride was poured into Sakaguchi flasks (500 ml), which was sterilized at 120° C. for 20 minutes. A slant culture of Escherichia blattae JCM 1650 was inoculated to each of the flasks once with a platinum loop, which was cultivated at 30° C. for 16 hours with shaking. Microbial cells were harvested from a culture by centrifugation. The microbial cells (about 3,300 g) were suspended in 100 mM potassium phosphate buffer (1 L, pH 7.0). A ultrasonic treatment was performed at 4° C. for 20 minutes to disrupt the microbial cells. The treated suspension was centrifuged to remove its insoluble fraction. Thus a cell-free extract was prepared.
# The purified enzyme had the following properties.
molecule,measurement,setting,value
B1,phosphate ester hydrolytic activity (phosphomonoesterase activity) relative to transphosphorylation activity,[1],not less than 30 times
same,Optimum temperature,[2],about 35 °C
same,Optimum pH,[2]; phosphate ester hydrolytic reaction,6.5
same,Optimum pH,[2]; transphosphorylation reaction,5.2
same,Temperature stability,[2]; treatment at pH 7.0 for 30 minutes,up to 40 °C
